Target: integrin αvβ5 on human colon adenocarcinoma HT-29 cells (human (endogenous in HT-29)) (UniProt P06756)
Sequence of UniProt P06756 (P06756 31-1048, chain 1 of 2): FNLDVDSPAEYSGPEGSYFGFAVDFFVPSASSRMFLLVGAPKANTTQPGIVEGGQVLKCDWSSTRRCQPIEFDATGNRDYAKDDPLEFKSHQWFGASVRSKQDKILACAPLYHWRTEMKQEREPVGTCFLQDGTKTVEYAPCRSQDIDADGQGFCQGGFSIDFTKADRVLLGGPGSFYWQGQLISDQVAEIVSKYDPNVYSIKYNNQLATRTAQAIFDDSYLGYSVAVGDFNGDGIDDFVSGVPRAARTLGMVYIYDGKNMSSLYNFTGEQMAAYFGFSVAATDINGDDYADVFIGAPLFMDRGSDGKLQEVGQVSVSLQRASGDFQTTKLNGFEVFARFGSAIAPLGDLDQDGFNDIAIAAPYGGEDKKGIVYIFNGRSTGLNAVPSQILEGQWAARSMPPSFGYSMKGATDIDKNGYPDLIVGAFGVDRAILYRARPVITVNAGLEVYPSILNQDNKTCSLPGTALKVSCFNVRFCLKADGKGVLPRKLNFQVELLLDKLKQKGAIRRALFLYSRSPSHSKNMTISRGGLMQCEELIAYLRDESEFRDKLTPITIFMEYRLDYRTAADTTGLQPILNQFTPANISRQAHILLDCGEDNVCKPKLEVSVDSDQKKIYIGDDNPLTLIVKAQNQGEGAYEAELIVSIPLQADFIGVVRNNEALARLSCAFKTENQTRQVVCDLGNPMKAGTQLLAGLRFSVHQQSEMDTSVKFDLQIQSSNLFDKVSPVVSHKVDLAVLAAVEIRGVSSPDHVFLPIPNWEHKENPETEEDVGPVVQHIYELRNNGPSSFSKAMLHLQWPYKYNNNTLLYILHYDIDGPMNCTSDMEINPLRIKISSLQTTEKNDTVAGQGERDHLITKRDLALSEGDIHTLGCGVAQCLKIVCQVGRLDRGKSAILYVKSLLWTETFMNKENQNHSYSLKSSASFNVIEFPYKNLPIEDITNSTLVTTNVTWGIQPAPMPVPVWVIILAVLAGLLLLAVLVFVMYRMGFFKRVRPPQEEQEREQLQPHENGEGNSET
Sequence of UniProt P06756 (P18084 24-799, chain 2 of 2, further chain): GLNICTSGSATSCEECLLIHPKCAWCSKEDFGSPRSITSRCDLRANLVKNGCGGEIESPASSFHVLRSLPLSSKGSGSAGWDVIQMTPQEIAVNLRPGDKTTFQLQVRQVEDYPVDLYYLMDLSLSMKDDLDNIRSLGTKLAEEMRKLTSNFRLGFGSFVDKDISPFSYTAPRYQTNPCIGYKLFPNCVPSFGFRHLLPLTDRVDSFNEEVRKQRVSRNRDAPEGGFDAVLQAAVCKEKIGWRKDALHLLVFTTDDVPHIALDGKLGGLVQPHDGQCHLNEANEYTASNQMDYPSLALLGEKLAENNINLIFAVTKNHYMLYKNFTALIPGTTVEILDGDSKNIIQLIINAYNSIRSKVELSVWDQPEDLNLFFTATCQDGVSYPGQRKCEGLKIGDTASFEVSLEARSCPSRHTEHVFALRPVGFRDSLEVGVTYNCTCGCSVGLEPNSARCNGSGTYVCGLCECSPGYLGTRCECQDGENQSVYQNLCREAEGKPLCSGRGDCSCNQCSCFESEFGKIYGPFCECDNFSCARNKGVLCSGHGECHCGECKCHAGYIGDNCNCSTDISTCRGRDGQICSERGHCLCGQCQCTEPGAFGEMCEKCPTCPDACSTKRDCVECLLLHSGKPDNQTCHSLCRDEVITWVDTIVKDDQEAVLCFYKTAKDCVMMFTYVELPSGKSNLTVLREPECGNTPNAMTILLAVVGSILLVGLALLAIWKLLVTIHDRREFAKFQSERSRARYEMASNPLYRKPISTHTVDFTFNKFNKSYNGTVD

## Echistatin (Ech), recombinant wild type with 6xHis-tag (natural protein)
  IC50 of inhibition of HT29 cell adhesion to immobilized vitronectin (blocks αvβ5 with vitronectin): 286 nM
